Patent US20220017636A1 (Amgen, published 2022)

Experiments:
Test in all cases: flow cytometry, peptide-loaded T2 cells;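 note: binding of single-chain Fv antibody constructs, raised in XenoMouse, to peptide-pulsed T2 cells measured by flow cytometry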
[1] = biological target: T1, MAGEB2 peptide … (SEQ ID NO: 1) complexed with HLA-A*02:01 on the cell surface (human)
T1 construct: whole, on cells; also called pMAGE-HLA; MAGEB2 pMHC
Protocol: (§1) Binding of pMAGE-HLA scFv constructs, generated from the XenoMouse, on peptide loaded T2 cells was evaluated by flow cytometry.

[2] = biological target: T2, STXBP5 peptide complexed with HLA-A*02:01 on T2 cells (human)
T2 construct: whole, on cells
Protocol: as §1

[3] = biological target: T3, MB peptide complexed with HLA-A*02:01 on T2 cells (human)
T3 construct: whole, on cells
Protocol: as §1

[4] = biological target: T4, DPYSL4 peptide complexed with HLA-A*02:01 on T2 cells (human)
T4 construct: whole, on cells
Protocol: as §1

[5] = biological target: T5, SLK peptide complexed with HLA-A*02:01 on T2 cells (human)
T5 construct: whole, on cells
Protocol: as §1

[6] = biological target: T6, MYOF peptide complexed with HLA-A*02:01 on T2 cells (human)
T6 construct: whole, on cells
Protocol: as §1

[7] = biological target: T7, KEA peptide complexed with HLA-A*02:01 on T2 cells (human)
T7 construct: whole, on cells
Protocol: as §1

[8] = biological target: T8, ADF peptide complexed with HLA-A*02:01 on T2 cells (human)
T8 construct: whole, on cells
Protocol: as §1

[9] = biological target: T9, CNDP2 peptide complexed with HLA-A*02:01 on T2 cells (human)
T9 construct: whole, on cells; also called CNPD2
Protocol: as §1

[10] = biological target: T10, COX14 peptide complexed with HLA-A*02:01 on T2 cells (human)
T10 construct: whole, on cells
Protocol: as §1

| Binder | Signal/background [1] | Signal/background [2] | Signal/background [3] | Signal/background [4] | Signal/background [5] | Signal/background [6] | Signal/background [7] | Signal/background [8] | Signal/background [9] | Signal/background [10] |
| --- | --- | --- | --- | --- | --- | --- | --- | --- | --- | --- |
| 18182-B5 (scFv, scFv in bacterial lysate, detected with anti-Flag M2) scFv: EVQLLESGGGLVQPGGSLRLSCAASGFTFSSHAMSWVRQAPGKGLEWVSAISGSGGGTYYADSVKGRFTISRDNSKNTLYLQMNSLRAEDTAVYYCATGKGVHLGFDYWGQGTLVTVSSGGGGSGGGGSGGGGSELVLTQPPSVSVAPGQTARITCGGNNIGSKSVHWYQQKPGQAPVLVVYDDNDRPSGIPERFSGSNFGNTATLIISRVEAGDEADYYCQVWDSSSDHVVFGGGTKLTVL | 560 | 1 | 1 | 1 | 1 | 1 | 0.9 | 0.9 | 1 | 1 |
| 18182-E1 (scFv, scFv in bacterial lysate, detected with anti-Flag M2) scFv: EVQLLESGGGLVQPGGSLRLSCAASGFTFSSHAMSWVRQAPGKGLEWVSAISGSGGGTYNADSVKGRFTISRDNSKNTLYLQMNSLRAEDTAAYYCVTGKGVHLGFDYWGQGTLVTVSSGGGGSGGGGSGGGGSELVLTQPPSVSVAPGQTARITCGGNNIGSKSVHWYQQKPGQAPVMVVYDDNDRPSGIPERFSGSNSGNTATLTISRVEAGDEADYYCQVWDSSSDHVVFGGGTKLTVL | 193 | 1 | 0.9 | 0.9 | 1 | 0.9 | 0.9 | 1 | 0.9 | 0.8 |
| 18182-A4 (scFv, scFv in bacterial lysate, detected with anti-Flag M2) scFv: EVQLLESGGGVVQPGRSLRLSCAASGFTFSSYAMTWVRQAPGQGLEWVSSISGSGGGTYYAASVKGRFTISRDNSKNTLYLQMNSLRAEDTAVYYCATGKGVHLGFDYWGQGTLVTVSSGGGGSGGGGSGGGGSELVLTQPPSVSVAPGQTARITCGGNNIGSKSVHWYQQKPGQAPVLVVYDDNDRPSGIPERFSGSNFGNTATLIISRVAAGDEADYYCQVWDSSSDHVVFGGGTKLTVL | 202 | 0.8 | 1 | 1 | 1 | 1 | 0.9 | 1.1 | 0.8 | 0.9 |
| 18182-B12 (scFv, scFv in bacterial lysate, detected with anti-Flag M2) scFv: EVQLLESGGGLVQPGGSLRLSCAASGFTFSSYAMSWVRQAPGKGLEWVSAISGSGGGTYYADSVKGRFTISRDNSKNTLYLQMSSLRAEDTAVYYCATGKGVHLGFDYWGQGTLVTVSSGGGGSGGGGSGGGGSELVLTQPPSVSVAPGQTARITCGGNNIGSKSVHWHQQKPGQAPVLVVYDDNDRPSGIPERFSGSNSGNTATLTISRVEAGDEADYYCQVWDYSSDHVVFGGGTKLTVL | 208 | 0.9 | 0.8 | 1 | 0.9 | 0.8 | 0.9 | 1 | 0.8 | 1 |
| 18182-E5 (scFv, scFv in bacterial lysate, detected with anti-Flag M2) scFv: EVQLLESGGGLVQPGGSLRLSCAASGFTFSSYAMSWVRQAPGKGLEWVSTISGSGGGTYYADSVKGRFTISRDNSKNTLYLQMNSLRAEDTAVYYCATGKGVHLGFDYWGQGTLVTVSSGGGGSGGGGSGGGGSELVLTQPPSVSVAPGQTARITCGGNNIGSKSVHWHQQKPGQAPVLVVYDDNDRPSGIPERFSGSNSGNTATLTISRVEAGDEADYYCQVWDYSSDHVVFGGGTKLTVL | 205 | 0.8 | 0.9 | 1 | 1 | 0.9 | 0.9 | 1 | 0.8 | 0.9 |
| 18089-D12 (scFv, scFv in bacterial lysate, detected with anti-Flag M2) scFv: EVQLLESGGGVVQPGRSLRLSCAASGFTFSTYGMHWVRQAPGKGLEWVAVISYDGSNKYYADSVKGRFTISRDDSKNTLYLQMNSLRAEDTAVYYCARGQLLTGYWGQGTLVTVSSGGGGSGGGGSGGGGSELVMTQSPSSLSASVGDRVTITCRASQGISNYLAWYQQKPGKVPKLLIYAASTLQSGVPSRFSGSGSGTDFTLTISSLQPEDVATYYCQKYNSAPFTFGPGTKVEIK | 176 | 1 | 1.1 | 1.1 | 1.3 | 1.1 | 1 | 1.1 | 1 | 1.1 |

Next, values leading:

| Signal/background [1] | Signal/background [2] | Signal/background [3] | Signal/background [4] | Signal/background [5] | Signal/background [6] | Signal/background [7] | Signal/background [8] | Signal/background [9] | Signal/background [10] | Binder |
| --- | --- | --- | --- | --- | --- | --- | --- | --- | --- | --- |
| 320 | 0.9 | 1 | 1.1 | 1 | 1 | 0.9 | 1 | 1 | 0.9 | 18182-G2 (scFv, scFv in bacterial lysate, detected with anti-Flag M2) scFv: EVQLLESGGGLVQPGGSLRLSCAASGFTFSSHAMSWVRQAPGKGLEWVSAISGSGGGTYNADSVKGRFTISRDNSKNTLYLQMNSLRAEDTAAYYCVTGKGVHLGFDYWGQGTLVTVSSGGGGSGGGGSGGGGSELVLTQPPSVSVAPGQTARITCGGNNIGSKSVHWYQQKPGQAPVMVVYDDNDRPSGIPERFSGSNSGNTATLTISRVEAGDEADYYCQVWDSSSDHVIFGGGTKLTVL |
| 365 | 1 | 1 | 1 | 1 | 1 | 1 | 1 | 1 | 1 | 18182-G6 (scFv, scFv in bacterial lysate, detected with anti-Flag M2) scFv: EVQLLESGGGLVQPGGSLRLSCAASGFTFSSYAMSWVRQAPGKGLEWVSAISGSGGGTYYADSVKGRFTISRDNSKNTLYLQMNSLRAEDTAAYYCVTGKGVHLGFDYWGQGTLVTVSSGGGGSGGGGSGGGGSELVLTQPPSVSVAPGQTARITCGGNNIGSKSVHWHQQKPGQSPVLVIYDDNDRPSGIPERFSGFNSGNTATLTISRVEAGDEADYYCQVWDSSSDHVVFGGGTKLTVL |
| 481 | 1.1 | 1 | 1.1 | 1.2 | 1.1 | 1 | 1 | 1 | 0.9 | 18182-H9 (scFv, scFv in bacterial lysate, detected with anti-Flag M2) scFv: EVQLLESGGGLVQPGGSLRLSCAASGFTFSSHAMSWVRQAPGKGLEWVSAISGSGGGTYYADSVKARFTISRDNSKNTLYLQMNSLRAEDTAVYYCATGKGVHLGFDYWGQGTLVTVSSGGGGSGGGGSGGGGSELVLTQPPSVSVAPGQTARITCGGNNIGSKSVHWHQQKPGQAPVLVVYDDNDRPSGIPERFSGSNSGNTATLTISRVEAGDEADFYCQVWDSSSDHVVFGGGTKLTVL |
| 289 | 1 | 1.1 | 1 | 1.1 | 1 | 0.9 | 1 | 0.9 | 0.9 | 18182-G8 (scFv, scFv in bacterial lysate, detected with anti-Flag M2) scFv: EVQLLESGGGLVKPGGSLRLSCAASGFTFSSYAMNWVRQAPGKGLEWVSAISGSGGGTYYADSGKGRFTISRDNSKNTLYLQMNSLRAEDTAVYYCATGKGVHLNFDYWGQGTLVTVSSGGGGSGGGGSGGGGSELVLTQPPSVSVAPGQTARITCGGNNIGSKSVHWYQQKPGQAPVMVVYDDNDRPSGIPERFSGSNSGNTATLTISRVEAGDEADYYCQVWDSSSDHVVFGGGTKLTVL |
| 273 | 0.8 | 0.9 | 0.9 | 1 | 0.9 | 0.8 | 0.9 | 0.8 | 0.9 | 18182-E10 (scFv, scFv in bacterial lysate, detected with anti-Flag M2) scFv: EVQLLESGGGLVQPGGSLRLSCAASGFTFSSHAMSWVRQAPGQGLEWVSSISGSGGGTYYAASVKGRFTISRDNSKNTLYLQMNSLRAEDTAVYYCATGKGVHLNFDYWGQGTLVTVSSGGGGSGGGGSGGGGSELALTQPASASVAPGQTARITCGGNNIGSKSVHWHQQKPGQAPVLVVYDDNDRPSGIPERFSGSNSGNTATLTISRVEAGDEADFYCQVWDSSSDHVVFGGGTKLTVL |
| 431 | 0.9 | 0.9 | 0.9 | 1 | 1 | 0.9 | 1 | 1 | 1 | 18182-E6 (scFv, scFv in bacterial lysate, detected with anti-Flag M2) scFv: EVQLLESGGGLVQPGGSLRLSCAASGFTFSSYAMSWVRQAPGKGLEWVSAISGSGGGTYYADSVKGRFTISRDNSKNTLYLQMNSLRAEDTAVYYCATGKGVHLNFDYWGQGTLVTVSSGGGGSGGGGSGGGGSELVLTQPSSVSVAPGQTARITCGGNNIGSKSVHWYQQKPGQAPVLVVYDDNDRPSGIPERFSGSNFGNTATLIISRVAAGDEADYYCQVWDSSSDHVVFGGGTKLTVL |
